Test results: US6346249 (LUDWIG INSTITUTE FOR CANCER RESEARCH, dated 2002)
Substitutions are numbered along the chain they refer to.

T1: recombinant human A33 antigen (human, UniProt Q99795 22-233, limits assumed)
T1 construct: also called human antigen A33; immobilized recombinant human A33
T1 sequence (looked up): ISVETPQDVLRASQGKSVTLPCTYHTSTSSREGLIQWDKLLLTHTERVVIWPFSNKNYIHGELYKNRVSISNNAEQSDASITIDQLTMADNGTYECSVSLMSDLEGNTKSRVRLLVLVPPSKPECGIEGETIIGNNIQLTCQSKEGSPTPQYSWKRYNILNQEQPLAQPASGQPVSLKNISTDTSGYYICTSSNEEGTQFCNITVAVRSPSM

B1: rabbit Fab 1 (rabbit VH1, VL1; chimeric rabbit/human Fab) (Fab, V domains shown)
VH: QQQVMESGGGLVTLGGSLTLTCKASGIDFSNNGISWVRQAPGKGLEWILYIYPDYGSTDYASWVNGRFTISLDNAQNTVFLQMTSLTAADTATYFCARDRGAYAGSRGTRLDLWGQGTLVTVSS
VL: EFDMTQTPPSLSASVGETVRIRCLASEFLFNGVSWYQQKPGKPPKFLISGASNLESGVPPRFSGSGSGTDYTLTIGGVQAEDVATYYCLGGYSGSSGLTFGAGTNVEIK
notes: Soluble Fab from E. coli; also called rabbit 1; rabbit clone 1
B2: humanized Fab B (human VLB and human VHB) (Fab, V domains shown)
VH: EVQVMESGGGLVKPGGSLRLSCAASGIGFSHYGISWVRQAPGKGLEWVSYIYPNYGSVDYASSVNGRFTISLDNAQNSLYLQMNSLRAEDTAVYFCARDRGYYSGSRGTRLDLWGQGTLVTVSS
VL: ELQMTQSPSSLSASVGDRVTITCLASEFLFNGVSWYQQKPGKVPKFLIYGASNLESGVPSRFSGSGSGTDFTLTISSLQPEDVATYYCLGGYSGSSGLTFGGGTKVEIK
B3: humanized Fab A (human VLA and human VHA) (Fab, V domains shown)
VH: B2 VH with G28D, L72F, F95Y
VL: B2 VL with F71Y
B4: humanized Fab D (human VLD and human VHD) (Fab, V domains shown)
VH: B2 VH with G28D
VL: B2 VL with F71Y
B5: humanized Fab C (human VLC and human VHC) (Fab, V domains shown)
VH: B2 VH with G28D, F95Y
VL: B2 VL with V43A
B6: humanized Fab E (human VLE and human VHE) (Fab, V domains shown)
VH: B2 VH with I27F, G28T, L72F, L79V, F95Y
VL: B2 VL with V43A, F46L, F71Y
B7: humanized Fab F (human VLF and human VHF) (Fab, V domains shown)
VH: B2 VH with F95Y
VL: B2 VL with V43A

molecular target: T1, recombinant human A33 antigen; assay: SPR (Biacore), recombinant human A33 immobilized on CM5 chip; Kd calculated from koff/kon
Procedure: (§1) The binding strength was determined by surface plasmon resonance in accordance with Rader, et al., Proc. Natl. Acad. Sci USA 95(15): 8910–8915 (1998), incorporated by reference. Briefly, the determination of association ($kon$) and dissociation ($koff$) rate constants for binding of rabbit and humanized Fab to recombinant human A33 antigen was performed on a Biacore instrument (Biacore AB, Uppsala, Sweden). A CM5 sensor chip (Biacore AB) was activated for immobilization with Nhydroxysuccinimide and N-ethyl-N'-(3-dimethylaminopropyl)carbodiimide according to standard methods. Recombinant human A33 antigen was coupled at a low density to the surface by injection of 30 µl to 40 µl of a 1 ng/µl sample in 10 mM sodium acetate (pH 3.5). Approximately 500 resonance units were immobilized. Subsequently, the sensor chip was deactivated with 1 M ethanolamine hydrochloride (pH 8.5). Binding of Fab to immobilized A33 antigen was studied by injection of Fab at 5 different concentrations ranging from 75 nM to 200 nM. PBS was used as the running buffer. The sensor chip was regenerated with 20 mM HCl and remained active for at least 50 measurements. The $kon$ and $koff$ values were calculated using Biacore AB evaluation software. The equilibrium dissociation constant K_d was calculated from $koff/kon$.
Association ($kon$) and dissociation ($koff$) rate constant were determined using surface plasmon resonance. Human antigen A33 was immobilized on the sensor chip. The dissociation constant (K_d) was calculated from […].

Row | Binder | Kd [nM]
1 | B1 | 0.39
2 | B2 | 1.7
3 | B3 | 5.6
4 | B4 | 29.2
5 | B5 | 18.1
6 | B6 | 7.7
7 | B7 | 3.5

molecular target: T1, recombinant human A33 antigen; assay: SPR (Biacore), recombinant human A33 immobilized on CM5 chip, Fab injected at 75-200 nM
Procedure: as §1
Figure 6: FIG. 6 depicts representative Biacore sensorgrams obtained for the binding of rabbit Fab 1 to immobilized human A33 antigen. For association, Fab were injected at 5 different concentrations (200 nM, 150 nM, 125 nM, 100 nM, 75 nM, top to bottom) between t=125 and t=370 seconds, using a flow rate of 5 µl/minute. For dissociation, the flow rate was increased to 50 µl/minute resonance units (RU).

Row | Binder | koff [s⁻¹] | kon [M⁻¹ s⁻¹]
8 | B1 | 0.00012 | 307000
9 | B2 | 0.00061 | 352000
10 | B3 | 0.00059 | 105000
11 | B4 | 0.0019 | 65000
12 | B5 | 0.00197 | 109000
13 | B6 | 0.0005 | 65000
14 | B7 | 0.00068 | 192000
